In US20070298448A1 (PROTEOSYS, published 2007):
Primed or numbered codes have the meaning given here. Ends that are not written are not given here. Bz′ = not defined here; OBz = not defined here

What was measured:
human angiotensin II = target: T1, human angiotensin II (human, UniProt P01019 25-32); assay: peptide incubated with mutant on Ni-NTA-agarose beads, washed, acid eluate read by MALDI-TOF
T1 construct: also called calibration peptide; control peptide

human angiotensin I = target: T2, human angiotensin I (human, UniProt P01019 25-34); assay: as above
T2 construct: also called calibration peptide; control peptide

[1] = target: T3, [Cys(Bz)^84, Glu(OBz)^85]-CD4(81-92) (UniProt P01730 106-117, reading uncertain); assay: mutant immobilized on Ni-NTA-agarose beads, peptide incubated, washed, eluted with 200 mM acetic acid, MALDI-TOF
T3 construct: range 81-92; Synthetic derivatized peptide
T3 peptide: TYIC(Bz′)E(OBz)VEDQKEE

B1: 6xHis-Ser237Ala-V8Δ48 mutant (enzyme)
chain: MRGSHHHHHHGSVILPNNDRHQITDTTNGHYAPVTYIQVEAPTGTFIASGVVVGKDTLLTNKHVVDATHGDPHALKAFPSAINQDNYPNGGFTAEQITKYSGEGDLAIVKFSPNEQNKHIGEVVKPATMSNNAETQVNQNITVTGYPGDKPVATMWESKGKITYLKGEAMQYDLSTTGGNAGSPVFNEKNEVIGIHWGGVPNEFNGAVFINENVRNFLKQNIEDIHFANDDQKLN
notes: also called Ser237Ala-V8Δ48 protease; anhydro mutant of the V8 proteinase
binding result (human angiotensin II): no binding | binding result (human angiotensin I): no binding | binding result [1]: binds
